According to the supplement of paper PMC9170038:

Tested on: MS2 coat protein
Test: apparent KD of MS2 coat protein; designed switch direction (-1 OFF switch, 1 ON switch): -1; higher = weaker reporter binding
In short: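 Each step of the titration lasted 0.8–1.5 h at the lowest concentration and 10–20 min at the highest. The protein, SNAP-549-labelled MS2 coat protein, went from 0.7 or 1.5 nM doubling to 3 µM over RNA switches transcribed on Illumina chips by stalled E. coli RNA polymerase. Normalised cluster fluorescence was curve-fitted, and the per-design median over clusters is given as apparent KD.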

[1] = input ligand: microRNA oligo, concentration not stated
[2] = Eterna round: R95, input ligand: microRNA oligo, concentration not stated
[3] = Eterna round: R95, input ligand: FMN 200 uM
[4] = Eterna round: R95, input ligand: none

Sequence	apparent KD of MS2 coat protein (input ligand: FMN 200 uM) [µM]	apparent KD of MS2 coat protein (input ligand: none) [µM]	apparent KD of MS2 coat protein [1] [µM]	apparent KD of MS2 coat protein [2] [µM]	apparent KD of MS2 coat protein [3] [µM]	apparent KD of MS2 coat protein [4] [µM]
UAGAAAGGUAAGGAUAUCCUUGAGAAAGAAAGAGGAGAAGGUACCACAUGAGGAUCACCCAUGUGGCUCUCAAA [jl-ex6-4.57 Nando mod] (Eterna round: R97, puzzle: Exclusion 6)	0.0152	0.0137	–	–	–	–
UACAUGAGGAUCACCCAUGUUUUGUCGUGUAUGGUAUUUAUCUAGGAUAUCAAUGGAUUUAUUUAUGAGAAGGAGAAUAUUAAU [JMF's solution 38] (Eterna round: R96, puzzle: Exclusion NG 3)	0.0396	0.0323	0.0256	–	–	–
ACUAGAUGAGGAUAUGCACAUUUUAGUGUUCCUCUAGAUUAACAUGAGGAUCACCCAUGUAGAAGGCGUCAUUA [Exclusion 2 - 14] (puzzle: Exclusion 2)	–	–	–	0.0499	–	–
AAUUAGUCAGGAUAUACAUGAGGAUCACCCAUGUAAACUUUUAGUUUAAUUUGAAUGUGUAGAAGGGACAUUAA [Ex3 #48] (Eterna round: R97, puzzle: Exclusion 3)	0.0254	0.0297	–	–	–	–
CAGUACUGAGGAUAUACAUGAGGAUCACCCAUGUGCUUUAGCUAGGAUACUAGCAUCAGUAGAAGGCAGUACUG [Fiskers Ex 3 828 mod 11] (puzzle: Exclusion 3)	–	–	–	0.0129	–	–
CUAAAAGUGAUCACAGGAACAUGAGGAUCACCCAUGUGCCUCAAGGAUAUGCACGGCUAUCCAGGGUAGAAGGUGAGAAUGCAC [Eternabot solution 30] (Eterna round: R96, puzzle: Exclusion NG 3)	0.0683	0.1	0.104	–	–	–
AGUAGUAGUAUCCGAUCCUACAUGAGGAUCACCCAUGUUGCUAGACGUGCACGCGAUGCUCGUCAGACUACCAGAUG [salish99_TOv1_r3_050] (puzzle: Sensor v3, turn-off variant 1)	–	–	–	0.15	0.326	0.157
AAAUUCAGAGGAUAUGCGCAUAGAUAAGACUUUUUUUCUUAACAUGAGGAUCACCCAUGUAGAAGGCUGUAAAC [Ex2 #61] (Eterna round: R97, puzzle: Exclusion 2)	0.0188	0.0162	–	–	–	–
CUGGUCCGAGGAUAUAUUAAGUGAUACAUGAGGAUCACCCAUGUAAUUUGAUGGAAAUAAAUAGAAGGCGGACUAG [Mat - Exclusion 5 - JL mod - D44] (puzzle: Exclusion 5)	–	–	–	0.0459	0.0342	0.0534
CCCACCAGAGGAUAUGCGCAUAGAUCAGACUUUGUUUCUGAACAUGAGGAUCACCCAUGUAGAAGGCUGUAACC [Ex2 #87] (Eterna round: R97, puzzle: Exclusion 2)	0.0252	0.0243	–	–	–	–
GGUAGUAUGAGUAGUCCUCAUUGAAGAGAUUAGUAAGAAACAUGAGGAUCACCCAUGUUAGAACAAGCUUUUGCUCA [JR_Sv3TOV2_Sub004] (puzzle: Sensor v3, turn-off variant 2)	–	–	–	0.0457	0.113	0.142
AGCUAGUCAGGAUAUACGCAAACGAACGAAGCAGUGAAGGGACAUGAGGAUCACCCAUGUAGAAGGGACUAGCA [Diamond 30] (Eterna round: R96, puzzle: Exclusion 2)	0.121	0.0249	0.0174	–	–	–
UAUUAGCAAGCGAGAUCCGACAUGAGGAUCACCCAUGUGCUCGUCUUAUAAGGGAGGGAGGGAAAACCCUCCCUCCC [Elimod 9 - Jieux - Sensor, turn-off variant 1] (Eterna round: R97, puzzle: Sensor, turn-off variant 1)	0.0195	0.0212	–	–	–	–
GAUGAGGUAGGAUAUACGAGAAGAUAGGGUAGAUAUAUAACACAUGAGGAUCACCCAUGUAGAAGGACCAGUAG [Mat - Exclusion 2 - Mod of my Tesla design - D71] (puzzle: Exclusion 2)	–	–	–	0.0364	0.0651	0.0317
ACCUCACAUGAGGAUCACCCAUGUUAGGAUAUCUCGAUGCUCCGCGGGCGGGAGCAUCAGAGAAGGAACGUGCA [Geusarvees] (puzzle: Exclusion 1)	–	–	–	0.0183	–	–
CAGUUUUGAGUGAGGAUAUGUGAUCCAAAGGGUCAACAGAAGGCACAUGAGGAUCACCCAUGUAAUCCAAUUGG [Eternabot (L2) Solution 37] (Eterna round: R97, puzzle: Brourd's mod of Exclusion 4)	1.52	3.77	–	–	–	–
CUGAGCAGACGGAGAUCCAACAUGAGGAUCACCCAUGUCUCAAAAGCUUAUUGCUCGUCUUAUCCUCCUCUGUUCAC [Mat - Sensor, turn-off var - Eli Mod - D54] (Eterna round: R97, puzzle: Sensor, turn-off variant 1)	0.0269	0.0267	–	–	–	–
GUUGUUCGGUAGGAUAUGAAACAGCAGAGAUUGUCAGAAGGGCCGACAUGAGGAUCACCCAUGUGUGCGAAAGC [Eternabot (L1) Solution 26] (Eterna round: R97, puzzle: Exclusion 6)	0.0351	0.05	–	–	–	–

Sequence	apparent KD of MS2 coat protein (input ligand: FMN 200 uM) [µM]	apparent KD of MS2 coat protein (input ligand: none) [µM]	apparent KD of MS2 coat protein [1] [µM]	apparent KD of MS2 coat protein [2] [µM]	apparent KD of MS2 coat protein [3] [µM]	apparent KD of MS2 coat protein [4] [µM]
UGUACUAUGCGUGCUGACAUGCGUAGUGCAGCAGGUGUAACAUGAGGAUCACCCAUGUCCUCAUUUGCUCGUCUUAU [SL-sv3-2.06 JL mod] (puzzle: Sensor v3, turn-off variant 2)	–	–	–	0.176	0.194	0.273
CAGGUCCGAGGAUAUAUUAUGUGAAACAUGAGGAUCACCCAUGUUAUAUGAUGGAUGUAAAUAGAAGGCGGACUUG [Mat - Exclusion 5 - JL mod - D64] (puzzle: Exclusion 5)	–	–	–	0.0293	0.0239	0.0353
GAUCAUGCAGGAUAUACAGUUUCCAUGAAAACAUGGAACUCACAUGAGGAUCACCCAUGUAGAAGGGCAUGAUC [Omei Ex2 A26] (Eterna round: R97, puzzle: Exclusion 2)	0.0259	0.0162	–	–	–	–
UAGGUACGAGGAUAUACAUAGAUACAGACACAUGUAGAUGUACAUGAGGAUCACCCAUGUAGAAGGCGUAUAUA [Mat - Same state - Mayanna Mod - D110] (Eterna round: R96, puzzle: Exclusion 2)	–	–	0.0607	–	–	–
AAAUAGUCAGGAUAUACAUGAGGAUCACCCAUGUAAACUUUUAGUUUAAUUUGAAUGUGUAGAAGGGACAUAAA [Ex3 #50] (Eterna round: R97, puzzle: Exclusion 3)	0.0314	0.0293	–	–	–	–
GUGUAGUCAGGAUAUACAUAGGAAGAGAAGAGAAGAGAAGCACAUGAGGAUCACCCAUGUAGAAGGGACAGUGU [Excluse me!! 4 - Jieux - Exclusion 2] (puzzle: Exclusion 2)	–	–	–	0.0614	0.0857	0.061
AAAUGAGAGCAGGAUAUCUUAUAAAUGUAUGAAAGAGAAGGGCUCACAUGAGGAUCACCCAUGUGGUCCUAGAU [jl-ex6-4.77 jandersonlee mod] (Eterna round: R97, puzzle: Exclusion 6)	0.673	0.0327	–	–	–	–
AAUUUGCAAGCGAGAUCCCACAUGAGGAUCACCCAUGUGCUCGUCUUAUAAGGUACUGUGACGAUAGUCACGGUACC [Mat - Sensor, turn-off var - Eli Mod - D93] (Eterna round: R97, puzzle: Sensor, turn-off variant 1)	0.0141	0.0143	–	–	–	–
AACUGUCUAGAGGAUAUGCUGGAUUAAUAUCUGGCAGAAGGUUGGACAUGAGGAUCACCCAUGUAAAUACUACC [Omei Ex6 A7] (Eterna round: R97, puzzle: Exclusion 6)	0.0331	0.0203	–	–	–	–
AUGCCGAGUGUAGGAUAUGGCCCGGAACCACGGCCAGAAGGACAUGAGGAUCACCCAUGUGGCCCGAUAUACACGGUAUCAGAC [Eternabot solution 1] (Eterna round: R96, puzzle: Exclusion NG 1)	0.0447	0.0244	0.0177	–	–	–
GCGUUCUGAGGAUAUACAUGAGGAUCACCCAUGUUGAGAAUUAGGUAUAAGGGAUUUUGUAGAAGGCAGAGUGC [JR_Ex3_Sub072] (Eterna round: R97, puzzle: Exclusion 3)	0.228	0.0599	–	–	–	–
AAUAACAGAGGAUAUACUGUUUUAUGUGUUUAUUAUUUUGAACAUGAGGAUCACCCAUGUAGAAGGCUGAAUAA [JMF 21] (puzzle: Exclusion 2)	–	–	–	0.0222	–	–
UUUGUGUCAGGAUAUGAGUAGUAGAACAAUAGUACUACUACUCAGAAGGGACAUGAGGAUCACCCAUGUUCCUC [Fiskers Ex 4 Super stable 44 mod 21] (puzzle: Exclusion 4)	–	–	–	0.019	–	–
ACGCCAGGAGGAUAUGCAAUAAGUAACAUGAGGAUCACCCAUGUUCGGGCGAUGCUCGUGGCAGAAGGCCUAGCCG [Edteonra] (Eterna round: R97, puzzle: Exclusion 5)	0.329	0.0361	–	–	–	–
AGCUGUGGCCGAGGAUAUCACAUGAGGAUCACCCAUGUACAUGAUUAGGCCUGGUAACAGGCUCAUGAGAAGGCGGUCUCAGCA [Eli eng2 - 013] (Eterna round: R96, puzzle: Exclusion NG 2)	0.0161	0.0224	0.0164	–	–	–
UCUCGACAUGAGGAUCACCCAUGUCAGGAUAUUGUGUUUGAGGUUUUUUACCUUUUGGCAAGAAGGGAUGUGUG [LRO-Excl1-21] (puzzle: Exclusion 1)	–	–	–	0.0249	–	–
UUUAGUUCAGGAUAUGUAGAUUUUAACAUGAGGAUCACCCAUGUAGAUCCUGAAUUAACUACAGAAGGGAACAUUA [Exclusion 5: 2:d] (puzzle: Exclusion 5)	–	–	–	0.0194	–	–
